In one data set the test system is M13 ssDNA. The experiment in a line: Next-generation sequencing of ssDNA degradation products (M13). The class given is biochemical. The protocol: To assess the ssDNA cleavage patterns of CARD1, 2 ug of ΦX174 virion DNA (New England Biolabs) or M13 ssDNA (M13mp18) (New England Biolabs) was first digested by 250 nM CARD1 with 2.5 uM of cA4 in a buffer consisting of 20 mM Tris pH 7.5, 150 mM NaCl, 1 mM DTT, and 5 mM MnCl2. At the specified time points, the reaction was quenched by adding 25 mM of EDTA. Half the reaction was visualized by agarose gel electrophoresis. The remaining digestion products from the 2 hour timepoint were purified by phenol chloroform extraction.
Without further fragmentation, the purified digested DNA was subjected to the Accel-NGS 1S Plus DNA Library Kit (Swift Biosciences), proceeding according to the manufacturer's protocol, using a 1.5× ratio of magnetic beads (AMPure XP beads by Beckman Coulter) to also include small DNA fragments. One of the library preparation steps involves the addition of on average 8 nucleotides to the 3′ end of the DNA. […] The 5′ end of each read R1 represents the start of a DNA molecule, and thus a CARD1 cut site. Using a custom python script, the location of 7,020,067 ΦX174 reads (mapping to Genbank reference NC_001422) and 7,670,616 M13 reads (mapping to Genbank reference X02513) was determined. To account for reads mapping at the circular junctions, 65 nucleotides of the first 5′ end of the maps were copied and added at the 3′ end of the maps. […]

For data set [1], the system named is RNA oligos with either 15 adenines, uracils, or cytosines. The settings on record: 5′ fluorophore and 3′ quencher; 15 A, U or C. The protocol:
For determining the nucleotide cleavage preference of CARD1, the reaction was performed as above, with 1 uM of each RNA oligo (IDT). […] Fluorescent measurements were taken in a TECAN plate reader, using values from when the reaction was complete. 0.5 ul of RNaseI (Thermo Fisher Scientific), which cuts next to all RNA nucleotides, was used as a positive control.

In the next data set the test system is pTarget. Kind of data set: Plasmid curing assay. Particulars: but not pCRISPR. The class given is cell-based, Staphylococcus aureus. Here is the method: To assess CARD1's ability to promote plasmid curing under low transcription conditions, a plasmid curing assay was performed, by adapting a known approach. Briefly, overnight cultures of S. aureus cells harbouring pTarget and a pCRISPR containing either Csm6, dCsm6, or CARD1 were diluted to exactly OD 0.15 in tryptic soy broth with 10 ug/ml chloramphenicol. After removing a cell aliquot for the 0 timepoint, aTc was added to a concentration of 9.3 ng/ml (FIG. 4e) or 125 ng/ml (FIG. 4f) and the cells were incubated at 37° C., with further aliquots taken at the indicated times. The cells were then lysed, and the plasmid DNA isolated using a QIAprep Miniprep kit (Qiagen) according to the manufacturer's protocol (Qiagen). 400 ng of plasmid was then linearized using BamHI-HF (New England Biolabs), which cuts both pTarget and pCRISPR once, followed by visualization by gel electrophoresis.

Data set [2] concerns phage Φ12γ3. Kind of data set: In vivo anti-phage immunity growth curves (Φ12γ3). The class given is cell-based, Staphylococcus aureus RN4220. Here is the method:
For in vivo anti-phage immunity, cells harbouring various pCRISPRs were launched in triplicate overnight, diluted 1:100, outgrown for about an hour, and normalized for OD. Cells were seeded into a 96 well plate. Phage Φ12γ3 (25) […] was added at the appropriate multiplicity of infection, and OD measurements were taken every 10 minutes.

In data set [3] the test system is Staphylococcus aureus RN4220. Kind of data set: Growth curves, in vivo CARD1 toxicity induction. Format: cell-based. Particulars: pTarget + pCRISPR variant, no antibiotic selection of pTarget. Here is the method: For in vivo CARD1 toxicity induction, triplicate RN4220 overnight cultures harbouring pTarget and a pCRISPR are diluted 1:100, outgrown for about an hour, and normalized for OD. Cells are then seeded in a 96 well plate. To induce targeting, 6.25-12.5 ng/ml of anhydrotetracycline (aTc) is added to the appropriate wells. Absorbance at 600 nm is then measured every 10 minutes by a microplate reader (TECAN Infinite 200 PRO). To analyze targeting escapers, cells from the end of the experiment (either cells from wells without aTc, i.e. naïve cells, or cells from wells that recovered later in the time course due to CARD1 toxicity) are re-streaked on BHI agar plates, and individual colonies were launched in liquid culture, diluted the next day, and used for a new time course experiment. From these overnight cultures, plasmid DNA was isolated (QIAgen Spin Miniprep Kit), digested by BamHI-HF (single-cutter for both pTarget and pCRISPR) (New England Biolabs), and visualized by gel electrophoresis. The deletion of important features in pTarget (making it unable to be targeted by pCRISPR) or pCRISPR was confirmed by Sanger sequencing.

Data set [4] has as its system phage Φ12γ3. The experiment in a line: Liquid anti-phage infection, PFU counts over time. The class given is cell-based, Staphylococcus aureus RN4220. The protocol: To obtain CFU and PFU counts over time from cultures infected with phage, RN4220 cultures harbouring various pCRISPRs were launched overnight, diluted 1:100, and outgrown for about one hour. Cells were then infected with phage Φ12γ3 at an MOI of 10, and an aliquot was taken shortly after to obtain PFUs at time 0. The cultures were then incubated further, with aliquots taken at 1 and 4 hours.

Where [5] appears, read: ORF9 and ORF27 transcripts targeted.

B1: CARD1: cA4-activated ssDNA and ssRNA nuclease of Treponema succinifaciens, SEQ ID NO:1; N-terminal CARF domain, C-terminal REase domain (protein, listed as Treponema succinifaciens)
chain: MKETILVNLVSEQTIPNVQFIKWYFNKKQTPMKILLVSTKEMEQKEKSLFIKNALHFSDSFVEWETIHTDGNDISKTENILTDYFRDNEYKNIIVNITGGTKIMSLAAFDFFNNKPNTEIFYQPIGKELQELYPNKQKYDMFEVLSLKEYLDAHGISYKYDNECVKDWNYNKTVYDLCVADNRELIKGMIALQNNSYFNNVYKRKDFLDFTQIEEEKFIAINHPAATKENMIKILQIFGFDVSRIEHKHIRYITGGWFEEYVYQKICNEYHNVDEKNVALNVTIQKGNDKNELDVIYLDKDNKLHVIECKSFVDGNEGNRVLNDALYKLQAIIKSKFGLYVKQHLYTKSIIEKETPLNRAKEFGIDIKDGTQL
Turning to B1, the “cuts that occur at the 25 most frequent positions” value in the data set with M13 ssDNA (M13, 5′ end mapping) came to 31.1%. In the data set on M13 ssDNA (M13, 2 hours timepoint), the “average fragment length of degradation products” value stood at 150.1 nucleotides. The “degradation of homopolymer RNA oligos (sequence preference)” value in data set [1] is given as “able to efficiently degrade RNAs consisting of all three bases”. The “time after addition of the inducer at which pTarget was cleared” value in the data set on pTarget amounted to 20 minutes. Moreover, the “immunity in cells that express Cas10^HD” value in the data set with phage Φ12γ3 [2] (setting [5]) is “able to provide immunity”. Moreover, the “need of CARD1 nuclease activity for immunity, early target” value in the data set on phage Φ12γ3 [2] (early ORF9 transcript of Φ12γ3 targeted) is given as “not required for immunity”. Also, the “survival of cultures after infection, late target” value with phage Φ12γ3 [2] (late ORF27 transcript of Φ12γ3 targeted) is “able to survive infection”. For the same molecule, the “growth of cultures (OD600) after addition of aTc” value in data set [3] is recorded as “severe growth defect”. Further, in the data set on phage Φ12γ3 [4] (setting [5]), the “phage titer in cultures of cells that express Cas10^HD” value is listed as “reduce the phage titer”. Further, in the data set on phage Φ12γ3 [4] (ORF27 transcript of Φ12γ3 targeted), the “phage propagation (pfu) at different times after infection” value is listed as “effectively eliminated Φ12γ3 from the culture”.

(Values after patent US12655405B2, “Sequence specific degradation of single-stranded polynucleotides with CARD1 nuclease” (The Rockefeller University, priority 2020, dated 2026).)
